From patent publication US20190322724

Assays:
[1] = target: wild type human TIMP-2 with C-terminal His6 tag (WT TIMP-2-His6)
[2] = target: WT TIMP-2-His6 tyrosine phosphorylated by c-Src

Chain of TIMP-2 Y90E-His6 (chain, as listed by the source Y90E): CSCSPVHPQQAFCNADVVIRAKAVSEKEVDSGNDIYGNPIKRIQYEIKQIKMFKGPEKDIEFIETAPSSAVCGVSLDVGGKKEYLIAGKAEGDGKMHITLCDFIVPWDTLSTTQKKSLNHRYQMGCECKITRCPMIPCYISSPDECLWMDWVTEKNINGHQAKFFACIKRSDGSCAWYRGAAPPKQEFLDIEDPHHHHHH
Chain of TIMP-2 Y90F-His6 (chain, as listed by the source Y90F): as the sequence (chain, as listed by the source Y90E) above, with E64F counted along it

B1: active 62 kDa MMP-2 (protein)
chain: YNFFPRKPKWDKNQITYRIIGYTPDLDPETVDDAFARAFQVWSDVTPLRFSRIHDGEADIMINFGRWEHGDGYPFDGKDGLLAHAFAPGTGVGGDSHFDDDELWTLGEGQVVRVKYGNADGEYCKFPFLFNGKEYNSCTDTGRSDGFLWCSTTYNFEKDGKYGFCPHEALFTMGGNAEGQPCKFPFRFQGTSYDSCTTEGRTDGYRWCGTTEDYDRDKKYGFCPETAMSTVGGNSEGAPCVFPFTFLGNKYESCTSAGRSDGKMWCATTANYDDDRKWGFCPDQGYSLFLVAAHEFGHAMGLEHSQDPGALMAPIYTYTKNFRLSQDDIKGIQELYGASPDIDLGTGPTPTLGPVTPEICKQDIVFDGIAQIRGEIFFFKDRFIWRTVTPRDKPMGPLLVATFWPELPEKIDAVYEAPQEEKAVFFAGNEYWIYSASTLERGYPKPLTSLGLPPDVQRVDAAFNWSKNKKTYIFAGDKFWRYNEVKKKMDPGFPKLIADAWNAIPDNLDAVVDLQGGGHSYFFKGAYYLKLENQSLKSVKFGSIKSDWLGC
MMP-2 enzymatic activity on a fluorogenic peptide substrate (TIMP-2 Y90F-His6): non-phosphorylatable Y90F displayed a slightly less MMP-2 inhibitory activity compared the WT TIMP-2 | MMP-2 enzymatic activity on a fluorogenic peptide substrate [1]: as expected WT TIMP-2 acts as an MMP-2 inhibitor | MMP-2 enzymatic activity on a fluorogenic peptide substrate (TIMP-2 Y90E-His6): phosphomimetic TIMP-2 Y90E inhibitory function correlates with significantly less MMP-2 enzymatic activity | MMP-2 enzymatic activity on a fluorogenic peptide substrate [2]: phosphoTIMP-2 (pWT) is significantly (˜25 percent) more inhibitory than the non-phosphorylated WT TIMP-2 toward MMP-2
